Assay results from publication PMC4997346 (2016).
No end group written: not given here.

B1: exactin (protein)
chain: LECYQKSKVVTCQPEQKFCYSDTTMFFPNHPVYLSGCTFSCTEEGNRRCCTTDKCNR
modifications: disulfide (positions not given here); also: four disulfide bonds, pairing not given here
B2: exactin (protein)
chain: B1 chain

Legend:
[1] = target: FVIIa/TF/FIX complex [ES] (Homo sapiens, UniProt P08709); experiment: FIX activation inhibition kinetics (Lineweaver-Burk secondary plot, Ki')
FVIIa/FX complex [ES] = FVIIa/FX complex [ES] (Homo sapiens, UniProt P08709); experiment: FX activation inhibition kinetics (Lineweaver-Burk secondary plot, Ki')
[2] = target: FVIIa/TF/FX extrinsic tenase complex [ES] (Homo sapiens, UniProt P08709); experiment: as above
[3] = target: T1, FVIIa/TF extrinsic tenase complex [E] (Homo sapiens, UniProt P08709); experiment: FX activation inhibition kinetics (Lineweaver-Burk secondary plot)
T1 chain 1: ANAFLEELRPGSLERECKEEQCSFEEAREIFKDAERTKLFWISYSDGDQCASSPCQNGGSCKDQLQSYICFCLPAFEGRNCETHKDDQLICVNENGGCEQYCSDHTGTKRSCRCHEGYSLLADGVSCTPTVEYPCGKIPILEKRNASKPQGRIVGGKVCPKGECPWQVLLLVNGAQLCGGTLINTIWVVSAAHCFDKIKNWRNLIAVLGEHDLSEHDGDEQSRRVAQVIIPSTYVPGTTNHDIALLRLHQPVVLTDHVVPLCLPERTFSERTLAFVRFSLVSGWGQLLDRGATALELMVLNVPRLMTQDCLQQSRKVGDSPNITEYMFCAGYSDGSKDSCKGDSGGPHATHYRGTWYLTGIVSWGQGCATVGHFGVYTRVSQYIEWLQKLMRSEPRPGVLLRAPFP
T1 chain 2: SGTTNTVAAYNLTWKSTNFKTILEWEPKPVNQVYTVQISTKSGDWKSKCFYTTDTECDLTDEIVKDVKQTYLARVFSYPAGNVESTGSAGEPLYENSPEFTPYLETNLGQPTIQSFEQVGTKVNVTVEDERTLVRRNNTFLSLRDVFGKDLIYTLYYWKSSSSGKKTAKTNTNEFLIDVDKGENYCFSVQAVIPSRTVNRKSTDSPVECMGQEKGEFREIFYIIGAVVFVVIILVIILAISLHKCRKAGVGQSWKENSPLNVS

[4] = target: intrinsic tenase complex (FIXa/FVIIIa) (Homo sapiens, UniProt P00740); experiment: as above
FVIIa [E] = target: T2, FVIIa [E] (Homo sapiens, UniProt P08709); experiment: as above
T2 chain 1: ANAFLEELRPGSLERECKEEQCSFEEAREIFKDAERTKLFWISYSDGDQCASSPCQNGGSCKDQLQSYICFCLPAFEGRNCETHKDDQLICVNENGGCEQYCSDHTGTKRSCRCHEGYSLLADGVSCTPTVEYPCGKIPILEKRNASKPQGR
T2 chain 2: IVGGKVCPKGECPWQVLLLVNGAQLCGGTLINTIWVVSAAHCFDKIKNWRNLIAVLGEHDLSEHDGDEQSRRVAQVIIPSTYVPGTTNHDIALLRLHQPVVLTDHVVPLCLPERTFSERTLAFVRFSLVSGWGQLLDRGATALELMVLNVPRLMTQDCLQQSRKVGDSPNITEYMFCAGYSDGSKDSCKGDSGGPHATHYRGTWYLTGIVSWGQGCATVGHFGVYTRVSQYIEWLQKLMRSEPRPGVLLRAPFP

[5] = target: T1, FVIIa/TF extrinsic tenase complex [E]; experiment: FIX activation inhibition kinetics (Lineweaver-Burk secondary plot)
[6] = target: FVIIa/sTF/FX complex [ES] (Homo sapiens, UniProt P08709); experiment: FX activation inhibition kinetics (Lineweaver-Burk secondary plot, Ki')
FVIIa/sTF complex [E] = target: T3, FVIIa/sTF complex [E] (Homo sapiens, UniProt P08709); experiment: FX activation inhibition kinetics (Lineweaver-Burk secondary plot)
T3 chain 1: T1 chain 1
T3 chain 2: T1 chain 2

intrinsic tenase complex (FIXa/FVIIIa), sequence (P00740 47-461, chain 1 of 2): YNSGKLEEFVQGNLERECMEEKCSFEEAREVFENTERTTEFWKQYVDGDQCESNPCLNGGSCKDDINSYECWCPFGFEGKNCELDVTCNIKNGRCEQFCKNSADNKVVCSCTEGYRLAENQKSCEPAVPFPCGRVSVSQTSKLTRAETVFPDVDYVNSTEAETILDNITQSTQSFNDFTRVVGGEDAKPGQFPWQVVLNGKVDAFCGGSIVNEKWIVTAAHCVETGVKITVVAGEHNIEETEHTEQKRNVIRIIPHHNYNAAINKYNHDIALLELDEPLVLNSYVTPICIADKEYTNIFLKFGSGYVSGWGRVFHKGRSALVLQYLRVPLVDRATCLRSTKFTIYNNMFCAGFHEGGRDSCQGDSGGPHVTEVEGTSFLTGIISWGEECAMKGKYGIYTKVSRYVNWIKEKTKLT
intrinsic tenase complex (FIXa/FVIIIa), sequence (P00451 20-2351, chain 2 of 2, further chain): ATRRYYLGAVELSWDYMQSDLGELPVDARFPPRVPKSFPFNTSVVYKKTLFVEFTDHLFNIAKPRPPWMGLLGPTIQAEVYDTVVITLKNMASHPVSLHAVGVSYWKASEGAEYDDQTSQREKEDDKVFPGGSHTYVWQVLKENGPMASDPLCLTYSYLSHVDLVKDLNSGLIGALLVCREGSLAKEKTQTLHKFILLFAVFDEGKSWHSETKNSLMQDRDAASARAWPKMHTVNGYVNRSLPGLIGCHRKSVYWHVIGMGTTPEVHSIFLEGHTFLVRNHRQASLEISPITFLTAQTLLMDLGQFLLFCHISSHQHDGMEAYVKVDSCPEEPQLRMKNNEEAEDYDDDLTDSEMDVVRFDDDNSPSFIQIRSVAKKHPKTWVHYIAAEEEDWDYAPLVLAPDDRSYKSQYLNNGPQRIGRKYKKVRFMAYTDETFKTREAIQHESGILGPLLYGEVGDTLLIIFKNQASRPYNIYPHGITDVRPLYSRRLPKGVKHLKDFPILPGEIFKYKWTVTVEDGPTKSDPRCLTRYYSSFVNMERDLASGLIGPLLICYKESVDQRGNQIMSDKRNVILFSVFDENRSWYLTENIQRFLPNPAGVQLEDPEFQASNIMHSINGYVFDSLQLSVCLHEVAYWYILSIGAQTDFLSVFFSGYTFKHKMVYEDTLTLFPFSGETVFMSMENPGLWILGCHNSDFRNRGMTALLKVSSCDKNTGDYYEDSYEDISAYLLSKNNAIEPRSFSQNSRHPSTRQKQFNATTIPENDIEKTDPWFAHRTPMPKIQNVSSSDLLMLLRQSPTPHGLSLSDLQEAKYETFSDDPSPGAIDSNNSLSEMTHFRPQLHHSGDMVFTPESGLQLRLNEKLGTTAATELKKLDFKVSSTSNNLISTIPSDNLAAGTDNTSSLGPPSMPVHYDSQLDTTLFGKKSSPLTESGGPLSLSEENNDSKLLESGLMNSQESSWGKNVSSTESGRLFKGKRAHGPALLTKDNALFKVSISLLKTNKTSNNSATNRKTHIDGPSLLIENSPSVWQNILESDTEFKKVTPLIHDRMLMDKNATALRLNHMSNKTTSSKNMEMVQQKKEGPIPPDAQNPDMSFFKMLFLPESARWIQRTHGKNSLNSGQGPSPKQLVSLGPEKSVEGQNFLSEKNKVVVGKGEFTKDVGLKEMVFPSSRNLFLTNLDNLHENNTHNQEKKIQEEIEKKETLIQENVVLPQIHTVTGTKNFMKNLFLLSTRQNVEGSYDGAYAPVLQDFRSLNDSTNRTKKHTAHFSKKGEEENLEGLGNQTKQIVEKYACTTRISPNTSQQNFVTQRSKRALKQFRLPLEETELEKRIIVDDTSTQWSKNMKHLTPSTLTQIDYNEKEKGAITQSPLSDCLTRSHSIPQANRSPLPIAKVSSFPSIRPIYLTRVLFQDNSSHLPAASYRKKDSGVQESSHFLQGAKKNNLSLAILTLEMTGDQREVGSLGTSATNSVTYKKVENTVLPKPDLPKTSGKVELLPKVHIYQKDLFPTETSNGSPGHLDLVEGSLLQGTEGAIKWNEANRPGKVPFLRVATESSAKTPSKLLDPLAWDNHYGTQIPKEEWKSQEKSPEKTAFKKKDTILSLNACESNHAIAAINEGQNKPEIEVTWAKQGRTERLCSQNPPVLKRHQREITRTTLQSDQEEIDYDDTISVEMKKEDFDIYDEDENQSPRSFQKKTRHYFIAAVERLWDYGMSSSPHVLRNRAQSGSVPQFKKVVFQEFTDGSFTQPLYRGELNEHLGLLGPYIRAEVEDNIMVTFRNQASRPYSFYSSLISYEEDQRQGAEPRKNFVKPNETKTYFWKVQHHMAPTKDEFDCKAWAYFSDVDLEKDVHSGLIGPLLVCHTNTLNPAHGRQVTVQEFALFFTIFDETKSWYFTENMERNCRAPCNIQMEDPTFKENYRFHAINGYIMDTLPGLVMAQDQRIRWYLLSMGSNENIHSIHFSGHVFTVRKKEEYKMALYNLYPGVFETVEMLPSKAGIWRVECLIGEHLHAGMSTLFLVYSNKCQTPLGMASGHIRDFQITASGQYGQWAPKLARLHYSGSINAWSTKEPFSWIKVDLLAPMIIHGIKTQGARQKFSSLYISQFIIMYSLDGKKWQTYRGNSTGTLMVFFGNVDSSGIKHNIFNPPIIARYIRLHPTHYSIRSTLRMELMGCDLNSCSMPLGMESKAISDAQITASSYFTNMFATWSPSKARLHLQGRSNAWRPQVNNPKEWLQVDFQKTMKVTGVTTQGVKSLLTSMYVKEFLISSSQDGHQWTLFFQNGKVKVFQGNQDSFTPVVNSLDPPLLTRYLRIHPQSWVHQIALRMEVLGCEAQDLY

| Binder | Ki [1] [µM] | Ki (FVIIa/FX complex [ES]) [µM] | Ki [2] [µM] | Ki [3] [µM] | Ki [4] [µM] | Ki (FVIIa [E]) [µM] | Ki [5] [µM] | Ki [6] [µM] | Ki (FVIIa/sTF complex [E]) [µM] |
| --- | --- | --- | --- | --- | --- | --- | --- | --- | --- |
| B1 | 38.7 | 0.103 | 0.0306 | 0.154 | 1.67 | 0.184 | 129 |  |  |
| B2 |  |  |  |  |  |  |  | 295 | 1250 |
